Results published in paper PMC12784346, “Paratope mapping of tilvestamab, an anti-AXL function-blocking antibody, using high-throughput bacterial expression of secreted scFv-osmY fusion proteins” (Bioscience Reports, 2025).

molecular target: T1, AXL Ig1 domain fused to human Fc (Homo sapiens, UniProt P30530); experiment: BLI; Octet RED96; His-tagged scFv-osmY captured on Ni-NTA tips from undiluted bacterial supernatant (600 s); AXL Ig1 domain Fc 5.6 ug/ml in kinetic buffer (0.02% Tween 20, 0.05% sodium azide, 0.1% BSA in PBS) as analyte; rat Axl-Fc as control; traces scored by eye (normal, fast, very fast, weak, weak fast, none); conditions: one partner purified
T1 construct: AXL receptor tyrosine kinase, human, Ig1 domain of the extracellular domain; Construct limits and production are in the Supplementary Information; also called AXL Ig1-Fc; AXL-Ig1-Fc

Binder | binding result
tilvestamab scFv-osmY G101A (scFv, V domains shown, VH of tilvestamab, as the VH of m1; numbers count on: the scFv-osmY fusion protein; linker; VL of tilvestamab, as the VL of m1; source: E. coli T7 expression strain, secreted, culture supernatant used directly; not shown: His6, C-terminal, kept) VH: EVQLVESGGGLVQPGGSLRLSCAASGYSFTDFYINWVRQAPGKGLEWVARIFPGGDNTYYNEKFKGRFTLSADTSKSTAYLQMNSLRAEDTAVYYCARRALYYAMDYWGQGTLVTVSS VL: DIQMTQSPSSLSASVGDRVTITCRSSQSLVHSNGIPYLHWYQQKPGKAPKLLIYRVSNRFSGVPSRFSGSGSGTDFTLTISSLQPEDFATYYCSQGTHVPPTFGQGTKVEIK | binds
tilvestamab scFv-osmY L102S (scFv, V domains shown, VH of tilvestamab, as the VH of m1; numbers count on: the scFv-osmY fusion protein; linker; VL of tilvestamab, as the VL of m1; source: E. coli T7 expression strain, secreted, culture supernatant used directly; not shown: His6, C-terminal, kept) VH: EVQLVESGGGLVQPGGSLRLSCAASGYSFTDFYINWVRQAPGKGLEWVARIFPGGDNTYYNEKFKGRFTLSADTSKSTAYLQMNSLRAEDTAVYYCARRGSYYAMDYWGQGTLVTVSS VL: DIQMTQSPSSLSASVGDRVTITCRSSQSLVHSNGIPYLHWYQQKPGKAPKLLIYRVSNRFSGVPSRFSGSGSGTDFTLTISSLQPEDFATYYCSQGTHVPPTFGQGTKVEIK | binds
tilvestamab scFv-osmY Y103S (scFv, V domains shown, VH of tilvestamab, as the VH of m1; numbers count on: the scFv-osmY fusion protein; linker; VL of tilvestamab, as the VL of m1; source: E. coli T7 expression strain, secreted, culture supernatant used directly; not shown: His6, C-terminal, kept) VH: EVQLVESGGGLVQPGGSLRLSCAASGYSFTDFYINWVRQAPGKGLEWVARIFPGGDNTYYNEKFKGRFTLSADTSKSTAYLQMNSLRAEDTAVYYCARRGLSYAMDYWGQGTLVTVSS VL: DIQMTQSPSSLSASVGDRVTITCRSSQSLVHSNGIPYLHWYQQKPGKAPKLLIYRVSNRFSGVPSRFSGSGSGTDFTLTISSLQPEDFATYYCSQGTHVPPTFGQGTKVEIK | binds
tilvestamab scFv-osmY Y108A (scFv, V domains shown, VH of tilvestamab, as the VH of m1; numbers count on: the scFv-osmY fusion protein; linker; VL of tilvestamab, as the VL of m1; source: E. coli T7 expression strain, secreted, culture supernatant used directly; not shown: His6, C-terminal, kept) VH: EVQLVESGGGLVQPGGSLRLSCAASGYSFTDFYINWVRQAPGKGLEWVARIFPGGDNTYYNEKFKGRFTLSADTSKSTAYLQMNSLRAEDTAVYYCARRGLYYAMDAWGQGTLVTVSS VL: DIQMTQSPSSLSASVGDRVTITCRSSQSLVHSNGIPYLHWYQQKPGKAPKLLIYRVSNRFSGVPSRFSGSGSGTDFTLTISSLQPEDFATYYCSQGTHVPPTFGQGTKVEIK | binds
tilvestamab scFv-osmY F33Y (scFv, V domains shown, VH of tilvestamab, as the VH of m1; numbers count on: the scFv-osmY fusion protein; linker; VL of tilvestamab, as the VL of m1; source: E. coli T7 expression strain, secreted, culture supernatant used directly; not shown: His6, C-terminal, kept) VH: EVQLVESGGGLVQPGGSLRLSCAASGYSFTDYYINWVRQAPGKGLEWVARIFPGGDNTYYNEKFKGRFTLSADTSKSTAYLQMNSLRAEDTAVYYCARRGLYYAMDYWGQGTLVTVSS VL: DIQMTQSPSSLSASVGDRVTITCRSSQSLVHSNGIPYLHWYQQKPGKAPKLLIYRVSNRFSGVPSRFSGSGSGTDFTLTISSLQPEDFATYYCSQGTHVPPTFGQGTKVEIK | binds
tilvestamab scFv-osmY F33A (scFv, V domains shown, VH of tilvestamab, as the VH of m1; numbers count on: the scFv-osmY fusion protein; linker; VL of tilvestamab, as the VL of m1; source: E. coli T7 expression strain, secreted, culture supernatant used directly; not shown: His6, C-terminal, kept) VH: EVQLVESGGGLVQPGGSLRLSCAASGYSFTDAYINWVRQAPGKGLEWVARIFPGGDNTYYNEKFKGRFTLSADTSKSTAYLQMNSLRAEDTAVYYCARRGLYYAMDYWGQGTLVTVSS VL: DIQMTQSPSSLSASVGDRVTITCRSSQSLVHSNGIPYLHWYQQKPGKAPKLLIYRVSNRFSGVPSRFSGSGSGTDFTLTISSLQPEDFATYYCSQGTHVPPTFGQGTKVEIK | binds
tilvestamab scFv-osmY G233S (scFv, V domains shown, VH of tilvestamab, as the VH of m1; linker; VL of tilvestamab, as the VL of m1; numbers count on: the scFv-osmY fusion protein; source: E. coli T7 expression strain, secreted, culture supernatant used directly; not shown: His6, C-terminal, kept) VH: EVQLVESGGGLVQPGGSLRLSCAASGYSFTDFYINWVRQAPGKGLEWVARIFPGGDNTYYNEKFKGRFTLSADTSKSTAYLQMNSLRAEDTAVYYCARRGLYYAMDYWGQGTLVTVSS VL: DIQMTQSPSSLSASVGDRVTITCRSSQSLVHSNGIPYLHWYQQKPGKAPKLLIYRVSNRFSGVPSRFSGSGSGTDFTLTISSLQPEDFATYYCSQSTHVPPTFGQGTKVEIK | binds

Now from value to binder:

binding result | Binder
binds | tilvestamab scFv-osmY F53A (scFv, V domains shown, VH of tilvestamab, as the VH of m1; numbers count on: the scFv-osmY fusion protein; linker; VL of tilvestamab, as the VL of m1; source: E. coli T7 expression strain, secreted, culture supernatant used directly; not shown: His6, C-terminal, kept) VH: EVQLVESGGGLVQPGGSLRLSCAASGYSFTDFYINWVRQAPGKGLEWVARIAPGGDNTYYNEKFKGRFTLSADTSKSTAYLQMNSLRAEDTAVYYCARRGLYYAMDYWGQGTLVTVSS VL: DIQMTQSPSSLSASVGDRVTITCRSSQSLVHSNGIPYLHWYQQKPGKAPKLLIYRVSNRFSGVPSRFSGSGSGTDFTLTISSLQPEDFATYYCSQGTHVPPTFGQGTKVEIK
binds | tilvestamab scFv-osmY F33S (scFv, V domains shown, VH of tilvestamab, as the VH of m1; numbers count on: the scFv-osmY fusion protein; linker; VL of tilvestamab, as the VL of m1; source: E. coli T7 expression strain, secreted, culture supernatant used directly; not shown: His6, C-terminal, kept) VH: EVQLVESGGGLVQPGGSLRLSCAASGYSFTDSYINWVRQAPGKGLEWVARIFPGGDNTYYNEKFKGRFTLSADTSKSTAYLQMNSLRAEDTAVYYCARRGLYYAMDYWGQGTLVTVSS VL: DIQMTQSPSSLSASVGDRVTITCRSSQSLVHSNGIPYLHWYQQKPGKAPKLLIYRVSNRFSGVPSRFSGSGSGTDFTLTISSLQPEDFATYYCSQGTHVPPTFGQGTKVEIK
binds | tilvestamab scFv-osmY L102Y (scFv, V domains shown, VH of tilvestamab, as the VH of m1; numbers count on: the scFv-osmY fusion protein; linker; VL of tilvestamab, as the VL of m1; source: E. coli T7 expression strain, secreted, culture supernatant used directly; not shown: His6, C-terminal, kept) VH: EVQLVESGGGLVQPGGSLRLSCAASGYSFTDFYINWVRQAPGKGLEWVARIFPGGDNTYYNEKFKGRFTLSADTSKSTAYLQMNSLRAEDTAVYYCARRGYYYAMDYWGQGTLVTVSS VL: DIQMTQSPSSLSASVGDRVTITCRSSQSLVHSNGIPYLHWYQQKPGKAPKLLIYRVSNRFSGVPSRFSGSGSGTDFTLTISSLQPEDFATYYCSQGTHVPPTFGQGTKVEIK
binds | tilvestamab scFv-osmY I35A (scFv, V domains shown, VH of tilvestamab, as the VH of m1; numbers count on: the scFv-osmY fusion protein; linker; VL of tilvestamab, as the VL of m1; source: E. coli T7 expression strain, secreted, culture supernatant used directly; not shown: His6, C-terminal, kept) VH: EVQLVESGGGLVQPGGSLRLSCAASGYSFTDFYANWVRQAPGKGLEWVARIFPGGDNTYYNEKFKGRFTLSADTSKSTAYLQMNSLRAEDTAVYYCARRGLYYAMDYWGQGTLVTVSS VL: DIQMTQSPSSLSASVGDRVTITCRSSQSLVHSNGIPYLHWYQQKPGKAPKLLIYRVSNRFSGVPSRFSGSGSGTDFTLTISSLQPEDFATYYCSQGTHVPPTFGQGTKVEIK
